Measured values as given in paper PMC10415282, “High resolution cryo-EM and crystallographic snapshots of the actinobacterial two-in-one 2-oxoglutarate dehydrogenase” (Nature Communications, 2023).
Values belong to the molecule of their own block, whether it stands above or below them.

B4: Corynebacterium glutamicum OdhA, full-length (residues 1-1221) (enzyme, Corynebacterium glutamicum ATCC13032, UniProt Q8NRC3 1-1221, looked up)
chain: MSSASTFGQNAWLVDEMFQQFQKDPKSVDKEWRELFEAQGGPNTTPATTEAQPSAPKESAKPAPKAAPAAKAAPRVETKPADKTAPKAKESSVPQQPKLPEPGQTPIRGIFKSIAKNMDISLEIPTATSVRDMPARLMFENRAMVNDQLKRTRGGKISFTHIIGYAMVKAVMAHPDMNNSYDVIDGKPTLIVPEHINLGLAIDLPQKDGSRALVVAAIKETEKMNFSEFLAAYEDIVARSRKGKLTMDDYQGVTVSLTNPGGIGTRHSVPRLTKGQGTIIGVGSMDYPAEFQGASEDRLAELGVGKLVTITSTYDHRVIQGAVSGEFLRTMSRLLTDDSFWDEIFDAMNVPYTPMRWAQDVPNTGVDKNTRVMQLIEAYRSRGHLIADTNPLSWVQPGMPVPDHRDLDIETHNLTIWDLDRTFNVGGFGGKETMTLREVLSRLRAAYTLKVGSEYTHILDRDERTWLQDRLEAGMPKPTQAEQKYILQKLNAAEAFENFLQTKYVGQKRFSLEGAEALIPLMDSAIDTAAGQGLDEVVIGMPHRGRLNVLFNIVGKPLASIFNEFEGQMEQGQIGGSGDVKYHLGSEGQHLQMFGDGEIKVSLTANPSHLEAVNPVMEGIVRAKQDYLDKGVDGKTVVPLLLHGDAAFAGLGIVPETINLAKLRGYDVGGTIHIVVNNQIGFTTTPDSSRSMHYATDYAKAFGCPVFHVNGDDPEAVVWVGQLATEYRRRFGKDVFIDLVCYRLRGHNEADDPSMTQPKMYELITGRETVRAQYTEDLLGRGDLSNEDAEAVVRDFHDQMESVFNEVKEGGKKQAEAQTGITGSQKLPHGLETNISREELLELGQAFANTPEGFNYHPRVAPVAKKRVSSVTEGGIDWAWGELLAFGSLANSGRLVRLAGEDSRRGTFTQRHAVAIDPATAEEFNPLHELAQSKGNNGKFLVYNSALTEYAGMGFEYGYSVGNEDSIVAWEAQFGDFANGAQTIIDEYVSSGEAKWGQTSKLILLLPHGYEGQGPDHSSARIERFLQLCAEGSMTVAQPSTPANHFHLLRRHALSDLKRPLVIFTPKSMLRNKAAASAPEDFTEVTKFQSVINDPNVADAAKVKKVMLVSGKLYYELAKRKEKDGRDDIAIVRIEMLHPIPFNRISEALAGYPNAEEVLFVQDEPANQGPWPFYQEHLPELIPNMPKMRRVSRRAQSSTATGVAKVHQLEEKQLIDEAFEA
notes: OdhA (E2o succinyltransferase and E1o 2-oxoglutarate decarboxylase domains on one chain), C. glutamicum ATCC13032, Uniprot Q8NRC3, residues 1-1221; TEV site (ENLYFQG) between the vector's His6-tag and the N-terminus; In the maps the chain is traced from Pro102; also called corynebacterial OdhA; source: E. coli BL21(DE3), purified (Ni-NTA, TEV cleavage, SEC); not shown: His6, N-terminal, cleaved

Tests used:
OdhA = target: T1, OdhA (Corynebacterium glutamicum, UniProt Q8NRC3); experiment: cryo-EM structure, […] Å; type: binding
T1 construct: full length residues 1-1221, E. coli BL21(DE3), N-terminal His6-TEV tag cleaved for cryo-EM (OdhA-His6 kept for SPR); homohexamer, ~800 kDa

OdhAΔ97 = target: T2, OdhAΔ97 (Corynebacterium glutamicum, UniProt Q8NRC3); experiment: crystal structure, […] Å; type: binding; settings: co-crystallised with 5 mM CoASH, pH 7.5; E2o acceptor site; pantothenate chain not traced
T2 construct: gene odhA; N-terminal truncation, residues 98-1221, E. coli BL21(DE3), His6-TEV tag cleaved; homohexamer

[1] = target: the molecule itself; experiment: crystal structure; MsKGD (10 mg/ml, 2 mM ThDP, 5 mM MgCl2) co-crystallised with GarA at 1:1 molar ratio; 0.1 M bicine pH 8.0, 30% PEG550MME, 0.2 M NaCl; 4.6 Å
[2] = target: B4; experiment: cryo-EM structure; single particle, OdhA incubated with OdhI at molar ratio 1:10, then SEC (Superose 6 increase, 20 mM Hepes pH 7.5, 500 mM NaCl); D3 symmetry; 2.3 Å; settings: both partners purified
[3] = target: the molecule itself; experiment: crystal structure; OdhAΔ97 (26 mg/ml) with 5 mM CoASH; 0.1 M Hepes-NaOH pH 7.5, 5% PEG 4000, 30% MPD; 2.5 Å; protomers related by crystallographic symmetry
[4] = target: the molecule itself; experiment: AUC; sedimentation velocity, 20 °C, 30,000 rpm, seven concentrations from 4 mg/ml to 0.0625 mg/ml, 20 mM Hepes pH 7.5, 500 mM NaCl

Molecule: CC(C)(COP(=O)(O)OP(=O)(O)OC[C@H]1O[C@@H](n2cnc3c(N)ncnc32)[C@H](O)[C@@H]1OP(=O)(O)O)[C@@H](O)C(=O)NCCC(=O)NCCS [CoASH]
cryo-EM structure, 2.2 Å (OdhA; E2o active site, out conformation, ThDP-Mg and acetyl-CoA also bound): the OdhA-CoASH complex shows the bound CoASH with the pantothenate chain not entering | crystal structure, 2.46 Å (OdhAΔ97): we could model CoASH, which was added to the cocrystallization mixture, as bound

Molecule: CC(=O)SCCNC(=O)CCNC(=O)[C@H](O)C(C)(C)COP(=O)(O)OP(=O)(O)OC[C@H]1O[C@@H](n2cnc3c(N)ncnc32)[C@H](O)[C@@H]1OP(=O)(O)O [acetyl-CoA]
cryo-EM structure, 2.2 Å (OdhA; allosteric, E1o domain pocket, no ligand added (co-purified from E. coli), activated conformation): show an acetyl-CoA molecule bound to E1o allosteric site which could be positioned unambiguously

B1: Mycobacterium smegmatis KGD, full-length (enzyme, UniProt A0R2B1 1-1227, looked up)
chain: MSSSPSPFGQNEWLVEEMYRKFRDDPSSVDPSWHEFLVDYSPEPTTDSASNGRTTTAAPVTPPTPAPAPAPEPKAAPKPAAKTEAKPAKPAKSATPAKGDESQILRGAAAAVVKNMNASLEVPTATSVRAIPAKLMIDNRVVINNHLKRTRGGKISFTHLLGYAIVQAVKKFPNMNRHFAVVDGKPTAITPAHTNLGLAIDLQGKDGNRSLVVAAIKRCETMRFGQFIAAYEDIVRRARDGKLTAEDFSGVTISLTNPGTLGTVHSVPRLMQGQGAIIGAGAMEYPAEFQGASEERIADLGIGKLITLTSTYDHRIIQGAESGDFLRTIHQLLLDDDFFDEIFRELGIPYEPVRWRTDNPDSIEDKNARVIELIAAYRNRGHLMADIDPLRLDNTRFRSHPDLDVNSHGLTLWDLDREFKVDGFAGVQRKKLRDILSVLRDAYCRHVGVEYTHILEPEQQRWIQERVETKHDKPTVAEQKYILSKLNAAEAFETFLQTKYVGQKRFSLEGAETVIPMMDAVIDQCAEHGLDEVVIAMPHRGRLNVLANIVGKPYSQIFSEFEGNLNPSQAHGSGDVKYHLGATGTYIQMFGDNDIEVSLTANPSHLEAVDPVLEGLVRAKQDLLDTGEEGSDNRFSVVPLMLHGDAAFAGQGVVAETLNLALLRGYRTGGTIHIVVNNQIGFTTAPTDSRSSEYCTDVAKMIGAPIFHVNGDDPEACAWVARLAVDFRQAFKKDVVIDMLCYRRRGHNEGDDPSMTQPYMYDVIDTKRGSRKAYTEALIGRGDISMKEAEDALRDYQGQLERVFNEVRELEKHEIEPSESVEADQQIPSKLATAVDKAMLQRIGDAHLALPEGFTVHPRVRPVLEKRREMAYEGRIDWAFAELLALGSLIAEGKLVRLSGQDTQRGTFTQRHAVIVDRKTGEEFTPLQLLATNPDGTPTGGKFLVYNSALSEFAAVGFEYGYSVGNPDAMVLWEAQFGDFVNGAQSIIDEFISSGEAKWGQLSDVVLLLPHGHEGQGPDHTSGRIERFLQLWAEGSMTIAMPSTPANYFHLLRRHGKDGIQRPLIVFTPKSMLRNKAAVSDIRDFTESKFRSVLEEPMYTDGEGDRNKVTRLLLTSGKIYYELAARKAKENREDVAIVRIEQLAPLPRRRLAETLDRYPNVKEKFWVQEEPANQGAWPSFGLTLPEILPDHFTGLKRISRRAMSAPSSGSSKVHAVEQQEILDTAFG
notes: KGD (two-in-one 2-oxoglutarate dehydrogenase, E2o and E1o domains on one chain), Mycobacterium smegmatis, full-length protein; Crystallised with 2 mM ThDP and 5 mM MgCl2; also called MsKGD; mycobacterial KGD; source: E. coli BL21(DE3)pLysS, purified as previously described
stoichiometry N [1]: 6

stoichiometry N [2]: 1
B2: Corynebacterium glutamicum OdhI (residues 1-143) (natural protein, Corynebacterium glutamicum ATCC13032, UniProt Q8NQJ3 1-143, looked up)
chain: MSDNNGTPEPQVETTSVFRADLLKEMESSTGTAPASTGAENLPAGSALLVVKRGPNAGARFLLDQPTTTAGRHPESDIFLDDVTVSRRHAEFRINEGEFEVVDVGSLNGTYVNREPRNAQVMQTGDEIQIGKFRLVFLAGPAE
notes: In the map only the FHA domain (Glu40-Ala142) is traceable; source: E. coli BL21(DE3), purified (Ni-NTA, TEV cleavage, SEC); not shown: His6, N-terminal, cleaved

B3: OdhAΔ97 (C. glutamicum OdhA residues 98-1221) (domain or fragment, Corynebacterium glutamicum ATCC13032, UniProt Q8NRC3 98-1221, looked up)
chain: KLPEPGQTPIRGIFKSIAKNMDISLEIPTATSVRDMPARLMFENRAMVNDQLKRTRGGKISFTHIIGYAMVKAVMAHPDMNNSYDVIDGKPTLIVPEHINLGLAIDLPQKDGSRALVVAAIKETEKMNFSEFLAAYEDIVARSRKGKLTMDDYQGVTVSLTNPGGIGTRHSVPRLTKGQGTIIGVGSMDYPAEFQGASEDRLAELGVGKLVTITSTYDHRVIQGAVSGEFLRTMSRLLTDDSFWDEIFDAMNVPYTPMRWAQDVPNTGVDKNTRVMQLIEAYRSRGHLIADTNPLSWVQPGMPVPDHRDLDIETHNLTIWDLDRTFNVGGFGGKETMTLREVLSRLRAAYTLKVGSEYTHILDRDERTWLQDRLEAGMPKPTQAEQKYILQKLNAAEAFENFLQTKYVGQKRFSLEGAEALIPLMDSAIDTAAGQGLDEVVIGMPHRGRLNVLFNIVGKPLASIFNEFEGQMEQGQIGGSGDVKYHLGSEGQHLQMFGDGEIKVSLTANPSHLEAVNPVMEGIVRAKQDYLDKGVDGKTVVPLLLHGDAAFAGLGIVPETINLAKLRGYDVGGTIHIVVNNQIGFTTTPDSSRSMHYATDYAKAFGCPVFHVNGDDPEAVVWVGQLATEYRRRFGKDVFIDLVCYRLRGHNEADDPSMTQPKMYELITGRETVRAQYTEDLLGRGDLSNEDAEAVVRDFHDQMESVFNEVKEGGKKQAEAQTGITGSQKLPHGLETNISREELLELGQAFANTPEGFNYHPRVAPVAKKRVSSVTEGGIDWAWGELLAFGSLANSGRLVRLAGEDSRRGTFTQRHAVAIDPATAEEFNPLHELAQSKGNNGKFLVYNSALTEYAGMGFEYGYSVGNEDSIVAWEAQFGDFANGAQTIIDEYVSSGEAKWGQTSKLILLLPHGYEGQGPDHSSARIERFLQLCAEGSMTVAQPSTPANHFHLLRRHALSDLKRPLVIFTPKSMLRNKAAASAPEDFTEVTKFQSVINDPNVADAAKVKKVMLVSGKLYYELAKRKEKDGRDDIAIVRIEMLHPIPFNRISEALAGYPNAEEVLFVQDEPANQGPWPFYQEHLPELIPNMPKMRRVSRRAQSSTATGVAKVHQLEEKQLIDEAFEA
notes: OdhA, C. glutamicum ATCC13032, Uniprot Q8NRC3, residues 98-1221 (without the flexible N-terminal segment); Crystallised with 5 mM CoASH; source: E. coli BL21(DE3), purified (Ni-NTA, TEV cleavage, SEC); not shown: His6, N-terminal, cleaved
stoichiometry N [3]: 6

Molecule: B4
stoichiometry N [4]: 6
